Data reported in US20240158457A1, “INTERLEUKIN-18 RECEPTOR BINDING POLYPEPTIDES AND USES THEREOF” (Medikine, Inc., priority 2022, published 2024).

Target: human IL-18 receptor (alpha and beta subunits) on HEK-BLUE IL-18 reporter cells (human) (UniProt Q13478)
Assay: cell-based or functional assay

Sequence of human IL-18 receptor (alpha and beta subunits) on HEK-BLUE IL-18 reporter cells (human) (Q13478 19-541, chain 1 of 2): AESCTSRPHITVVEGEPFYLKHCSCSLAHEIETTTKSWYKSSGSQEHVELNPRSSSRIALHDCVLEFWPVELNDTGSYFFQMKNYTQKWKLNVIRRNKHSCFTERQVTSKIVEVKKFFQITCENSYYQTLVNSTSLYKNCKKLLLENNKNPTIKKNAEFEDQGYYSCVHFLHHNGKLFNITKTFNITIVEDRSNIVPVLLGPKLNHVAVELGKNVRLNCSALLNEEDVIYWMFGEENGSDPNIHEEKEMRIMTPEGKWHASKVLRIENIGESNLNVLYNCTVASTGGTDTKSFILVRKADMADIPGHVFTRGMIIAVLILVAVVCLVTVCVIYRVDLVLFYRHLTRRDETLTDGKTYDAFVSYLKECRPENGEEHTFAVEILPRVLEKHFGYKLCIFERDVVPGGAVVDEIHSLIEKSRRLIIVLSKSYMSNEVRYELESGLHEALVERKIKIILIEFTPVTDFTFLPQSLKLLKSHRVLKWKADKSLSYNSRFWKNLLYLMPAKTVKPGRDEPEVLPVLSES
Sequence of human IL-18 receptor (alpha and beta subunits) on HEK-BLUE IL-18 reporter cells (human) (O95256 20-599, chain 2 of 2, further chain): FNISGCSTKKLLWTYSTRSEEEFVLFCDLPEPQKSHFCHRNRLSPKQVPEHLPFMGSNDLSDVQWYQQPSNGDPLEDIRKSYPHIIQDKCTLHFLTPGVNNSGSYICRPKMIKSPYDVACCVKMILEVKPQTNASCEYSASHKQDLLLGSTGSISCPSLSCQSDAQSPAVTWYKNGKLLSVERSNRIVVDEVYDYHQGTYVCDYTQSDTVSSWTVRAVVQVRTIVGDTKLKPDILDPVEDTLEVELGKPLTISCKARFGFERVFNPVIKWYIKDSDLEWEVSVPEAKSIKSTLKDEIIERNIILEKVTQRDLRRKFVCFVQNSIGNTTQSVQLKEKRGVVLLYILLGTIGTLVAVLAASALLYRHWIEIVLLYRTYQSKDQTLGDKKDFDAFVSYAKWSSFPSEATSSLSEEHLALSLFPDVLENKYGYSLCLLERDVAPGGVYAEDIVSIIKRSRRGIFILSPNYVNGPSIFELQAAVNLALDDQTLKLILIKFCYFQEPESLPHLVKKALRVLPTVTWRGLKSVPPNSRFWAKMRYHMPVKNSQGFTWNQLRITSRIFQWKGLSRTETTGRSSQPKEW

EC50, NF-κB reporter activity in HEK-BLUE IL-18 cells: 0.38 pM
Substance: Human recombinant IL-18 (R&D Systems #9124-IL-050/CF) (from UniProt Q14116 1-193) (ligand)
